Measured values published in PMC5685495.

Target: wild-type human dopamine transporter (human) (UniProt Q01959)
Chain of UniProt Q01959 (Q01959 whole entry): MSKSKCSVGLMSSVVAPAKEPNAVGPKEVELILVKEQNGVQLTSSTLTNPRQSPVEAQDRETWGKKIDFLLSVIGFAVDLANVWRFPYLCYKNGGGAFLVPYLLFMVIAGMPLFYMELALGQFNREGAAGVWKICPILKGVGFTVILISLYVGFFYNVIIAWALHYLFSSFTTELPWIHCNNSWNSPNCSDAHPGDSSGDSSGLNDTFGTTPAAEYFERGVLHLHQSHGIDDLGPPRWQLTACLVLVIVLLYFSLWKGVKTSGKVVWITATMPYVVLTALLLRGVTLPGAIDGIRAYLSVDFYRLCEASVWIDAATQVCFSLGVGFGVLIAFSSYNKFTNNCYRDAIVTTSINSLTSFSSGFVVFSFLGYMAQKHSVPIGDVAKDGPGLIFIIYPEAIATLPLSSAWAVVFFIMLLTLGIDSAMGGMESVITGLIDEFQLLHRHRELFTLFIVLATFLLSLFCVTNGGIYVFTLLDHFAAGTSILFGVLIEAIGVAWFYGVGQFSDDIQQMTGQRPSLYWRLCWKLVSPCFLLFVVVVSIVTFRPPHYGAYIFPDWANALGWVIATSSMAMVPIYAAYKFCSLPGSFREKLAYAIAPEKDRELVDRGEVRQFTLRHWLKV

With “Recombinant Tat1-86 (from UniProt P04608 1-86) (natural protein)” the decrease in DA uptake by WT hDAT in the presence of recombinant Tat1-86 was 31%.
